Where a chain is given by its changes, count along the chain named.
Key:
[1] = target: T1, cynomolgus CD73 extracellular domain (ECD) (cynomolgus); test: SPR (Proteon), IgG1-TM
T1 construct: extracellular domain; also called Cynomolgus CD73 ECD; cyno CD73 (SPR Proteon)

murine CD73 on cells = target: T2, murine CD73 on cells (murine, UniProt Q61503 29-551); test: cell-based or functional assay
T2 sequence (looked up): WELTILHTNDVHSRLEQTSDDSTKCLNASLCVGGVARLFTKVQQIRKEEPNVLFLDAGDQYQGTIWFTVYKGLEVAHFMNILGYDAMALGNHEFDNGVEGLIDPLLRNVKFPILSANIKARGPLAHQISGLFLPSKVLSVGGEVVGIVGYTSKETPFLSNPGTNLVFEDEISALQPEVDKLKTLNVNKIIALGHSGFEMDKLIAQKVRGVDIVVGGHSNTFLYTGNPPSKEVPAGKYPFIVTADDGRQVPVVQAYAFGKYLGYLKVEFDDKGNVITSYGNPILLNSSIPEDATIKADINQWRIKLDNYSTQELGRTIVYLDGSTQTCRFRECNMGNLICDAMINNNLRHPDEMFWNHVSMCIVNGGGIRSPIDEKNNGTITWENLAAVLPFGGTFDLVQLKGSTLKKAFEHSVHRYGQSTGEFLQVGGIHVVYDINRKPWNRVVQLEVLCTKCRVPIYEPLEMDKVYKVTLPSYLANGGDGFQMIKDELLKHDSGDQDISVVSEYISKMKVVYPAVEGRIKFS

CD73 chimera KO_Nterm = target: T3, CD73 chimera KO_Nterm (chicken (Gallus gallus); human); test: SPR ProteOn, CD73 variant on HTG chip
T3 construct: Human limits converted from mature numbering (+26); also called N-terminal domain-swapped CD73
T3 chain: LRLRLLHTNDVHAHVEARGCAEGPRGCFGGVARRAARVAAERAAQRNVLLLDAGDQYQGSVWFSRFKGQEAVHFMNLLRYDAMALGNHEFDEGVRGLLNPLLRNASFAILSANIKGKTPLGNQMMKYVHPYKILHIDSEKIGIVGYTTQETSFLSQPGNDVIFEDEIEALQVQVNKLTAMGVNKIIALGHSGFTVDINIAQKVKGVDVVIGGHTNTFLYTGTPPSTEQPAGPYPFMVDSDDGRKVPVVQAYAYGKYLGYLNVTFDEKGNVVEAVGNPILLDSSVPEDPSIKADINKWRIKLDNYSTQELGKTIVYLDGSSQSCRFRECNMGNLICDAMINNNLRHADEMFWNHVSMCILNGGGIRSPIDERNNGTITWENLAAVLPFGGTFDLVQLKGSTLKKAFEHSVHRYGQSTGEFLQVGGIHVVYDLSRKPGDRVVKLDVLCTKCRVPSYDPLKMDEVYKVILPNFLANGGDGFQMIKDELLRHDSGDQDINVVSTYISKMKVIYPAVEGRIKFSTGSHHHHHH

human CD73 V144K + N185G = target: T4, human CD73 V144K + N185G (human, UniProt P21589 27-553); test: SPR ProteOn, CD73 variant on HTG chip
T4 chain: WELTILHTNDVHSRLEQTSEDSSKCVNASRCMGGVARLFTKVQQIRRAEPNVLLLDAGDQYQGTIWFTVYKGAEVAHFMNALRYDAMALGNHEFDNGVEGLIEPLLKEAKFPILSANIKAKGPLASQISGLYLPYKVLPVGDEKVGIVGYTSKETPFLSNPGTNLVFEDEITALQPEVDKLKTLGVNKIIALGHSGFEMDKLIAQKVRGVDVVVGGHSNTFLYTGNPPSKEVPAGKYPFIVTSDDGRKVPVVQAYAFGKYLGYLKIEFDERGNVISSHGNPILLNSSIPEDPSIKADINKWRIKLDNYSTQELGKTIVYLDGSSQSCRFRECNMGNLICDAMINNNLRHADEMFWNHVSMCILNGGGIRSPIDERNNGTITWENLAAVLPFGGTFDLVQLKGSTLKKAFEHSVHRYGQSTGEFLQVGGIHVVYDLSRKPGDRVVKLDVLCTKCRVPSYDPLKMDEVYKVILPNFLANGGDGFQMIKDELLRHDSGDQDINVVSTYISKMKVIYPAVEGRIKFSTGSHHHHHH

human CD73 K180A + N185G = target: T5, human CD73 K180A + N185G (human, UniProt P21589 27-553, K180A; N185G); test: SPR ProteOn, CD73 variant on HTG chip
T5 sequence: T4 chain with K144V, K180A, A350T

[2] = target: T1, cynomolgus CD73 extracellular domain …; test: SPR ProteOn, antibody captured by anti-human Fc, CD73 ECD in mobile phase, 1:1 model

B1: MEDI9447 (antibody, V domains shown)
VH: EVQLLESGGGLVQPGGSLRLSCAASGFTFSSYAYSWVRQAPGKGLEWVSAISGSGGRTYYADSVKGRFTISRDNSKNTLYLQMNSLRAEDTAVYYCARLGYGRVDEWGRGTLVTVSS
VL: QSVLTQPPSASGTPGQRVTISCSGSLSNIGRNPVNWYQQLPGTAPKLLIYLDNLRLSGVPDRFSGSKSGTSASLAISGLQSEDEADYYCATWDDSHPGWTFGGGTKLTVL
notes: also called clone 10.3 antibody; 73combo3
In the case of B1, the Kd [1] is reported as 7 pM, the “FabZAP internalization, max toxicity, 4T1” value (murine CD73 on cells) is reported as 97% and the binding result (CD73 chimera KO_Nterm) is reported as “no binding (tested: 5 nM to 0.3 nM)”. For the same binder, the binding result (human CD73 V144K + N185G) was “no binding”, the binding result (human CD73 K180A + N185G) was “no binding” and the Kd [2] was 6.5 pM. It also gave a koff [2] of 1.76e-05 s⁻¹ and a kon [2] of 2.71e+06 M⁻¹ s⁻¹.

— patent US20160194407A1 (AstraZeneca / MedImmune, published 2016)
